Here are results for 1 molecule from article PMC7398576.

One data set deals with p53 wild type (UniProt P04637 1-393). In words: pull-down.
Another data set concerns the target FLAG-p53 (UniProt P04637 1-393). In words: pull-down.

Sequence of p53 wild type (P04637 whole entry): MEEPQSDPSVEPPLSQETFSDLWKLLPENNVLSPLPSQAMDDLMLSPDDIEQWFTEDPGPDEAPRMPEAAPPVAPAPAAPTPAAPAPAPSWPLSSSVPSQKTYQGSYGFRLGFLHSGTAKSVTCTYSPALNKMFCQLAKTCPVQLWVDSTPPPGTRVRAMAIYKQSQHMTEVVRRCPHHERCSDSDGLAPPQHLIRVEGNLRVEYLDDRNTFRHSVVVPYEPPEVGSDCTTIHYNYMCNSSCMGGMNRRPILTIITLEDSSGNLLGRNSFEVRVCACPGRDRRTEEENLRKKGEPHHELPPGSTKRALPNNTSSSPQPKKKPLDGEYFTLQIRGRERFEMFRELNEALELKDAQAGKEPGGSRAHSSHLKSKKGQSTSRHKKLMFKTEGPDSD
Sequence of FLAG-p53 (P04637 whole entry): as above

B1: biotinylated p53-site oligonucleotide (dsDNA)
DNA 1: TCGAGAGGCATGTCTAGGCATGTCTC
DNA 2: GAGACATGCCTAGACATGCCTCTCGA
In the case of B1, the binding result in the data set with p53 wild type and with FLAG-p53 was “binds” throughout.
